# B1: TPR t1 (parent)
# chain: GACCAAUCUGCCCUCAGAGCUCGAGAACAUCUUCGGAUGCAGAGGAGGCAGGCUUCGGUGGCGCGAUAGCGCCAACGUCCUCAACCUCCAAUGCAUCCCACCACAUGAUGAUGCCUGAAGAGCCUUGGUUUUUUG
# Variants of: B1
# Experiment: polymerase ribozyme fitness, log enrichment relative to wild type (log ratio); higher = more active; in vitro selection for triplet polymerase activity
# Summary of the method: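 For each subunit of a heterodimeric triplet polymerase ribozyme, a mutant library was built by PCR and transcribed, then taken through a single in vitro selection round in triplicate. Selection involved annealing to a biotinylated primer, the partner subunit and triplets, incubation frozen at −7 °C, gel excision of extended constructs, capture on streptavidin beads and RT-PCR. Genotypes were retained after Illumina sequencing of inputs and outputs only with ≥10 input reads and ≥1 read in each output. Fitness is defined as the logarithm of a genotype's enrichment relative to wild-type enrichment, using inverse-variance-weighted averages across replicates, with the logarithm taken to base 2.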
row,Variant,polymerase ribozyme fitness (log ratio)
1,U7G C124U,1.55
2,C8A C12G C64U G110U,-0.685
3,C8A C104A G120A,1.08
4,C8A C15A A29U G42U,-3.65
5,U7G C49A C70U C85G U130A,-2.22
6,C8A C12A U78G,-0.297
7,C8A C34G G117C,-6.88
8,C8A G44U,-0.208
9,C8A G45C A105U,-1.9
10,C8A C12U A16U C40A C62U U87A,-1.51
11,C8A A29U A90C,-2.87
12,U7G A111C U112A C123G,-0.393
13,U7G G120U,0.729
14,C8A C28G C102A U109A,-4.85
15,U7G U21A A26G G47U C123U U129A U133G,-3.24
16,U7G C40G C56U G69U,-2.3
17,U7G U38C G45U C97U U133G,-2.84
18,C8A G36U U112A G127U,2.16
19,C8A A46U G61A G117C,-2.38
20,C8A C70U C89A G120A,-0.458
21,C8A G36A G57A G61A C72G,-1.48
22,C8A G17C G63U U96C C97A G113U,-6.74
23,C8A A75G G117A A121U,1.31
24,C8A A103G G110U,-5.33

row,Variant,polymerase ribozyme fitness (log ratio)
1,C8A A68G C73G U78G C101U U112A,-5.78
2,U7G G45C C72G C82A C98A,-5.33
3,C8A C12A C34U G39C G61U C85A,-7.04
4,C8A G36U G42A,-3.09
5,U7G C88G,-0.456
6,U7G C13A A37C G52A G69U U92A A105U,-4.57
7,C8A C49U A74C U78C C85A A91U C94U,-3.74
8,C8A A74U C115U A118U C124U,-0.848
9,C8A C49A,0.247
10,C8A G51U U59A A83U C85G U106A,-6.35
11,U7G C20U C115U,-2.32
12,U7G G48A C70A C101A,-2.19
13,C8A C28G C53A U106G,-3.51
14,C8A G61U,-0.146
15,C8A G61C,-0.912
16,C8A C40U A90C,-0.703
17,C8A C34A A37U C104U,-1.95
18,U7G U14G C34G C72U,-5.84
19,C8A A43C,-1.76
20,C8A C80U C88U U133A,-0.694
21,U7G C70A U87A A121G,1.36
22,C8A G44U G52A C72A,-0.705
23,C8A G52U C89U,-0.556
24,C8A C72U U78A G93C C101A,-1.75

row,Variant,polymerase ribozyme fitness (log ratio)
1,U7G A68U,-6.53
2,U7G G63A,0.0919
3,C8A C62A,-0.709
4,U7G C20U A27U G47C G113A,-4.53
5,U7G C34U G58A,-5.02
6,U7G U54C G58A U92C,-0.551
7,U7G C70A A100U,-2.41
8,U7G C70U A83U U131A,0.0577
9,U7G G52A C85A U87G,-1.55
10,C8A G51C C53A A66U C88A C114A,-6.04
11,C8A C104U,0.701
12,C8A C53A U92A A121U,-1.12
13,C8A G63U A119U,-1.39
14,C8A C79U,0.419
15,C8A C123G,2.06
16,C8A A29U U55G,-1.42
17,C8A A24C C31U U38A G45U C56G C70G C80A A111U G117C,-6.01
18,C8A G45U,-0.263
19,C8A G45A,0.134
20,C8A C72U U109G,-3.8
21,C8A A74C G120U,2.1
22,C8A A91G,-0.00436
23,U7G G10A A41G C73G C79A C80A C115A,-3.06
24,C8A G19A C88G A95C,-5.8

row,Variant,polymerase ribozyme fitness (log ratio)
1,U7G G61U C82G A91C U112C,0.65
2,U7G C11U A18C G45U C53A G57U C72U,-3.58
3,U7G C15U C28G U32A A41U G63U C89A U116C,-4.52
4,C8A A37U C86U,-0.337
5,C8A A24U G25U A43G C70G A105C U112G,-7.66
6,C8A C70U C72U,-0.317
7,U7G G63C A91U,-2.27
8,C8A C15A A41C C49A G58U G63U U131A,-3.62
9,C8A C12A,0.497
10,C8A C12U,-0.964
11,U7G U106C,1.03
12,U7G G60C,-0.367
13,C8A G10A C86U G120C,1.44
14,C8A C40U C62A A90C,-3.39
15,C8A G61A G63A,-6.8
16,C8A A37C U78G A100C C101A U106G,-5.27
17,C8A C22U U129G,-4.85
18,C8A C15G A29U,-2.66
19,U7G G10A G45U U96G G117U,-2.43
20,U7G C53G,-0.551
21,C8A C12A C34U C56G G71A G77A,-4.02
22,C8A A50G A95C,0.286
23,C8A G39A G44C C82U C86U G127C,-2.71
24,C8A C80A,-1.88

row,Variant,polymerase ribozyme fitness (log ratio)
1,U7G G93U G113A,-1.85
2,U7G C11U C97U,0.101
3,U7G G10U G42U A46C U54A G57A C101U C114U,-4.29
4,U7G G52U,-0.337
5,C8A C15G C40A U54G A90G,-2.34
6,C8A C70U,-0.452
7,C8A G44C U106G,-1.03
8,C8A A74U C104A C124G,-0.357
9,C8A C89A,-1.24
10,C8A A43U G71C,-2.95
11,C8A C49A C86U G93U C94U C123A,-0.367
12,C8A A37G C62G C99U G122A,-6.04
13,U7G G71U,0.698
14,U7G C49A,0.309
15,U7G G77C C97U U109A,-6.1
16,C8A C34U,-4.29
17,U7G U9A G60U C82U,0.122
18,U7G U14C A29G G42U U59A C123U,-3.3
19,U7G C8U G61A A90U A121C,0.312
20,C8A C11G A16U A43C U78C U125A,-1.72
21,U7G C76U,0.285
22,C8A C13G,-0.0841
23,C8A C40U,-0.324
24,U7G C70U A105G,-3.6

row,Variant,polymerase ribozyme fitness (log ratio)
1,C8A C56U A83U G93A,0.0132
2,U7G C53G A90G,0.0166
3,U7G C40U A43G G44U C70U U112C,-0.649
4,U7G C8G G44A G120A C124A,1.06
5,C8A C53A C82A A108U,-5.69
6,U7G C22G G47C G60U A84U,-5.01
7,U7G C70U C102A,-2.24
8,U7G C101G A121C,-0.603
9,C8A C12U G45U C62U C94G,-1.01
10,U7G U14G C94A,-0.903
11,C8A A26U A46C C56U,-2.74
12,U7G A118G,0.686
13,C8A G42A G60U A121C,-0.202
14,U7G C12A G36U G77U,-0.735
15,U7G U14A C56U U78C A84C C101A,-1.53
16,U7G C53U C88G C104U G113C U130G,-2.37
17,C8A G51U,-3.89
18,C8A C12G G23U G71U C86U G120C,-5.74
19,C8A G52U A91U U112A A118C U131C,-1.36
20,U7G U106G G117U,-3.33
21,U7G G35C U130G,-4.31
22,C8A C56A,0.505
23,U7G G57A C94A C99U A121C,-5.61
24,U7G C12U C20A C72U,-1.43

row,Variant,polymerase ribozyme fitness (log ratio)
1,U7G G42C G71A C89G,-2.37
2,U7G C11G U33A A90G C101A,-6.24
3,C8A G60U C104G C124U,-5.09
4,U7G G36U C80U U92G C123U,-4.24
5,U7G C34U G69U C123U U133C,1.52
6,C8A C22G A121U,-1.6
7,C8A A18C,-1.93
8,C8A C98U,-1.12
9,C8A C124U,1.95
10,C8A C11U A121U,2.14
11,U7G G63A C102U,-3.01
12,C8A C20U G60A C88A,-1.93
13,C8A C11G U54C U106A,0.24
14,U7G C15G C88G U96A A108G C124A,-5.93
15,C8A G48U,-0.337
16,U7G C79U C124A,2.08
17,C8A G42A C73U,-1.21
18,U7G C8G U106A C115A G127A,2.21
19,C8A C12A C34U C56G G77A,-2.77
20,C8A C13U C20A C40A C49A A111G G117A U130C,-5.75
21,C8A A26U C89G C94U C124G U125G G127U,-3.87
22,U7G G52C A90C U130A,-1.64
23,C8A G23A A66G G69U C104U A118G,-5.28
